Assay: yeast display, Sf9 membrane polyspecificity reagent, FACS + sequencing; frameworks hold sequencing errors
How it was run: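 Polyreactivity labels are assigned by the sorting gate from which each nanobody was recovered. The gates were low and high (top ~1%), set on anti-HA fluorescence for expression and streptavidin fluorescence for reagent binding. Before sorting, galactose-induced (36–48 hours) yeast display cells were stained for 1 hour at 4 °C with 10% biotinylated, detergent-solubilized Sf9 membrane reagent.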

| Sequence | polyreactivity (PSR sort gate) |
| --- | --- |
| QVQLVESGGGLVQAGGSLRLSCAASGRIFRRNAMGWYRQAPGKERELVAAISSSGGRTYYADSVKGRFTISRDNAKNTVYLQMNSLKPEDTAVYYCATRESLEPGYYWGQGTQVTVSS | high polyreactivity |
| QVQLVESGGGLVQAGGSLRLSCAASGRIFRRYAMGWYREAPGKERELVAAITASGGITYYADSVKGRFTISRDNAKNTVYLQMNSLKPEDTAVYYCAARGSSGYDYWGQGTQVTVSS | high polyreactivity |
| QVQLVESGGGLVQAGGSLRLSCAASGRIFRRYAMGWYRQAPGKERELVAAISTRGGSTYYADSVKGRFTISRDNAKNTVYLPMNSLKPEDTAVYYCAAGRDPGYNNDDYWGQGTQVTVSS | high polyreactivity |
| QVQLVESGGGLVQAGGSLRLSCAASGRIFRRYAMGWYRQAPGKERELVADITYGVDSTYYADSVKGRFTISRDNAKNTVYLQMNSLKPEDTAVYYCNADRTEDLLYRFVGVTYGYWGQGTQVSVSS | high polyreactivity |
| QVQLVESGGGLVQAGGSLRLSCAASGRIFRRYAMGWYRQAPWKERELVAAISTSGVRTYYADSVKGRFTISRDNAKNTVYLQMNSLNPEDTAVYYCATVAGPPYDYWGQGTLVTVSS | high polyreactivity |
| QVQLVESGGGLVQAGGSLRLSCAASGRIFRSNAMGWYRQAPGKERELLAAISGSGSTTNYADSVKGRITISRDNAKNTVYLQMNSLKPEDTAVYYCATGKRGVSGRGFRYDYWGLGTQVTVSS | high polyreactivity |
| QVQLVESGGGLVQAGGSLRLSCAASGRIFRSNAMGWYRQAPRKERELVPAITSSDTSTYYADSVKGRFTISRDNAKNTVYLQMKSLKPEDTAVYYCAADFKPTGTNEPKELDYWGQGTQVTVSS | low polyreactivity |
| QVQLVESGGGLVQAGGSLRLSCAASGRIFRSNARGWYRPAPGKERELVAAISSNGGSTYYADSVKGRFTISRDNAKNTVYLQMNSLKPEDTAVYYCAARVYYPVRYGYWGQGTQVTVSS | high polyreactivity |
| QVQLVESGGGLVQAGGSLRLSCAASGRIFRSYTMGWYRQAPGKERELVAAISKTGSRTYYADSVKGRFTISRDNAKNTVYLQMNSLKPEDTAVYYCAALFVHSYRDDYWGQGTQVTVSS | high polyreactivity |
| QVQLVESGGGLVQAGGSLRLSCAASGRIFRTYAMGWYRQAPGKERELVAAISGRGGNTYYADSVKGRFTSSRDNAKNTVYLQMNSLKPEETAVYYCAASKPARDTQQRWVYAGYDYWGQGTQVTVSS | high polyreactivity |
| QVQLVESGGGLVQAGGSLRLSCAASGRIFRTYAMGWYRQAPGKERELVAAISYSGGSTFYADSVKGRFTISRDNAKNSVYLQMNSLKPESTAVYYCAADSRAKRYYWGQGTQVTVSS | high polyreactivity |
| QVQLVESGGGLVQAGGSLRLSCAASGRIFRVNSMGWYRQAPGKEREFVAAITKNGGSTYYADSVKGRFTISLDNANNTVYLQMNSLKPEDTAVYYCAVRAWDPYTGKCVYWGQGTQVTVSW | low polyreactivity |
| QVQLVESGGGLVQAGGSLRLSCAASGRIFRVYAMGWYRQAPGKERELVAAITSGGTTYADSVKGRFTISRDYAKNTVYLQMNSLKPEDTAVYYCAARYYIHRGYDYDYWGQGTQVTVSS | high polyreactivity |
| QVQLVESGGGLVQAGGSLRLSCAASGRIFRVYAMGWYRQAPGKERQLVAAISYSGGRTFYADSVKGRFTISRDNSKNTVYLQMNSLIPEDTAVYYCAAKSYYTQALPPLDYWGQCTQVTVSS | low polyreactivity |
| QVQLVESGGGLVQAGGSLRLSCAASGRIFRWNAMGWYRQAPGKERDLVAAISWRGANTYYADSVKGRFTISRDNAKNTVYLQMNSLKPEDTAVYYCARYSYRGSQSDSWGQGTQVTVSS | high polyreactivity |
| QVQLVESGGGLVQAGGSLRLSCAASGRIFRWYAMGWYRQAPGKERELVAAISSRGGSTYYADSVKGRFTISRDNAKNTVYLQMNSLKPEDTAVYYCAADTSGWQPRYDYWGQGTQVTVSS | high polyreactivity |

| Sequence | polyreactivity (PSR sort gate) |
| --- | --- |
| QVQLVESGGGLVQAGGSLRLSCAASGRIFRWYAMGWYRQAPGKERELVAAISSSGGSTYYADSVKGRFTISRDNAKINVYLQMKSLKPEDTAVYYCNAEAVAYWSVPYNYWGQGTQVTVSS | high polyreactivity |
| QVQLVESGGGLVQAGGSLRLSCAASGRIFRWYAMGWYRQAPGKERELVAAITQGGGSTYYADSVKGRFTISRDNAKNTVYLQMNSLKPEDTAVYYCAARGRSVGSAGTSRYGYWGQGTQVTVSS | high polyreactivity |
| QVQLVESGGGLVQAGGSLRLSCAASGRIFRWYTMGWYRQAPGKERELVARISSGGITYYADSVKGPFTISRDNAKNTVYLQMNSLKPEDTAVYYCNTYVSRNFDYWGQGTQLTVSS | high polyreactivity |
| QVQLVESGGGLVQAGGSLRLSCAASGRIFRYNAKGWYRQAPGKERELVAAISRDGSTYYADSVKGRFTISRDNAKNTVYLQMKSLKPEDTAVYYCAAGYSRRGWRRAYNYWGQGTQVTVSS | high polyreactivity |
| QVQLVESGGGLVQAGGSLRLSCAASGRIFRYNAMGLYRQAPGKERELVAVITSRGGRTYYADSVKGRFTISRDNAKNTVYLQMNSLKPEDTAVYYCTAKRYRYYRWYFTGKYDYWGQGTQVTVSS | high polyreactivity |
| QVQLVESGGGLVQAGGSLRLSCAASGRIFRYNAMGWYRQAPGKERELVAAISTRGGNTYYADSVKGRFTISRDNAKNTVYLQMNSLKPEDTAVYYCNARSSLPYNYWGQGTQVTVSS | high polyreactivity |
| QVQLVESGGGLVQAGGSLRLSCAASGRIFRYNAMGWYRQAPGKERELVAAISWSGGSTYADSVKGRFTISRDNAKNTVYLQMNSLKPEDTAVYFCAADSSDLYVWGYDHGGQGTQVTVSS | low polyreactivity |
| QVQLVESGGGLVQAGGSLRLSCAASGRIFRYNAMGWYRQAPGKERELVAAITKGGGSTYYADSVKGRFTISRDNAKNTVYLQMTSLNPEDTGVYYCAARRAVYRGNYWGQGTKVTVSS | high polyreactivity |
| QVQLVESGGGLVQAGGSLRLSCAASGRIFRYNAMGWYRQAPGKERELVASINQRGGYTYYADSVKGRFTISRDNAKNTVYLQMNSLKPEDTAVYYCAADRPRGRETVYYWGQGTQVTVSS | high polyreactivity |
| QVQLVESGGGLVQAGGSLRLSCAASGRIFRYNAMGWYRQAPGKERELVASISSSGGSTYYADSVKGRFTISRDTAKNTVYLQMNCLKPEDTAVYYCSAYPGDRHSRINLGYWGQGTQVTVSS | high polyreactivity |
| QVQLVESGGGLVQAGGSLRLSCAASGRIFRYNAMGWYRQAPGKERELVATITSGGNTNYADSVKGRFTISRDNAKNTVYLQMISLKPEDTAVYYCNAAEPQWYDAYDYWGQGTQVTVSS | low polyreactivity |
| QVQLVESGGGLVQAGGSLRLSCAASGRIFRYNAMGWYRQAPGKEWELVAAIRFSGGSTYYADSVKGRFTLSRDNAKNTVYLHMNSLKPEDTAVYYCAKVYFRVQSGMDYWGQGTQVTVST | low polyreactivity |
| QVQLVESGGGLVQAGGSLRLSCAASGRIFRYNTLGWYRQAPGKERELVAAINSSGGRTYYADSVKGRFTISRDNAKNTVYLQMNSLKPEDTAVYYCAAVIYVLSGPGYDYWGQGTQVTVSS | high polyreactivity |
| QVQLVESGGGLVQAGGSLRLSCAASGRIFRYNTMGWYRQAPGKERELVADINSGGSTYADSVKGRFTISRDNAKNTVYLQMNSLKPEDTAVYYCNADSGLRAGYYYGYDYWGQGTQVTVSS | low polyreactivity |
| QVQLVESGGGLVQAGGSLRLSCAASGRIFRYNTMGWYRQAPGKERELVADITSSDSSTYYADSVKGRFTISRDNAKNTVYLQMNSLKPEDTAVYYCAARDSGYGWRYYYWGQGTQVTVSS | low polyreactivity |
| QVQLVESGGGLVQAGGSLRLSCAASGRIFRYNVMGWYRQAPGKERELVAAITSRGGSTYYADSVKGRFTISRDNAKNTVYLQMNSLKPEDTAVYYCAAYPWEFGTYNYWGQGTQVTVSS | high polyreactivity |
